The values below come from patent US7501496 (ROCHE PALO ALTO, dated 2009).

The target in assay [1] is T1, Recombinant soluble human OX40L fused to a Histidine tag (human, UniProt P23510 51-183).
T1 construct: extracellular domain; there it was reduced and LDS-denatured; also called hOX40L-His; hOx40L-His; not shown: Histidine tag
T1 sequence (looked up): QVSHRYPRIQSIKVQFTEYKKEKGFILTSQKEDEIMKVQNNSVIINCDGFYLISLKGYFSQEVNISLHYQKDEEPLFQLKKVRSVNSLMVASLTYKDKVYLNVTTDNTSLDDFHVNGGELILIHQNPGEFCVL
Nature of the assay: SPR, Biacore 3000; antibody captured via anti-Fcγ on CM5, hOX40L-His as analyte, 1:1 Langmuir fit. As to the method:
(§1) Instrument: Biacore 3000, running and reaction buffer: HBS-P (10 mM HEPES, 150 mM NaCl, 0.005% Tween 20, ph 7.4), 25° C. Injection of analyte was performed at 7 concentrations between 0.78 nM and 100 nM for 3 minutes and washed with HBS-P for 5 minutes. Regeneration of the surface (carboxymethylated dextrane surface, CM) was performed by two injections of 10 mM Glycine pH 2.0 for 1 min each. The chip, assay format and sequence of injections and kinetic data correspond to the description in the following table. Kinetic data were calculated by fitting kinetic data to a 1:1 Langmuir binding model.

For assay [2], the target named is T1, Recombinant soluble human OX40L fused …. Nature of the assay: SPR, Biacore 3000; antibody captured via anti-Fcγ on CM5, hOX40L-His as analyte, 1:1 Langmuir fit; native hOX40L-His as analyte in SPR, antibody captured via Anti-hFcg, HBS-P pH 7.4, 25 C. Here is the method: as §1
(In general: In SPR one partner is held on a chip, and binding of the other changes the refractive index at the surface.)

Assay [3] deals with T2, human OX40L expressed on cells (K562-hOX40L cells; HUVEC) (human, UniProt P23510 1-183).
T2 sequence (looked up): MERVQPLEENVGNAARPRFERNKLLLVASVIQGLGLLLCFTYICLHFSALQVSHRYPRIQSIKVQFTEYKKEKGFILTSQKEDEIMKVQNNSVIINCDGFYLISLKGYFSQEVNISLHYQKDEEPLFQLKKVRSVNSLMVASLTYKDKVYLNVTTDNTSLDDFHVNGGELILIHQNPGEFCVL
Description: cell-based or functional assay.

In assay [4] the target is T1, Recombinant soluble human OX40L fused …. Nature of the assay: SPR competition; hOX40L-His (10 nM) preincubated with antibody (0.78-100 nM), injected over immobilized OX40-hFc; native hOX40L-His (10 nM) preincubated with the antibody in solution, competition for immobilized OX40-hFc. Here is the method:
Instrument: Biacore 3000, running and reaction buffer: HBS-P (10 mM HEPES, 150 mM NaCl, 0.005% Tween 20, ph 7.4), 25° C. Prior to injection the analyte (10 nM) and competitor (eight concentrations between 0.78 nM and 100 nM) were preincubated for at least 20 min at 22° C. Injection of analyte+/−competitor was performed for 3 minutes and washed with HBS-P for three minutes. Regeneration of the surface was performed by two injections of 10 mM Glycine pH 2.0 for 1 min each. The chip, assay format and sequence of injections and kinetic data correspond to the description in the following table 3.

Residue numbers refer to the chain shown, from its start.

B1: Human anti-human OX40L monoclonal antibody LC.033 (antibody, V domains shown)
VH: QKQLVEFGGGVVQPGRSLRLSCAASGFTFSNYGMHWVRQAPGKGLEWVAVIWNDGSNKYYVDSVKGRFIISRDNSKNTLYLQMNSLRAEDTAVYYCARDRMGIYYYGMDVWGQGTTVTVSS
VL: EIVLTQSPATLSLSPGERATLSCRASQGVSRYLAWYQQKPGQAPRLLIYDASNRATGIPARVSGSGPGTDFTLTISSLEPEDFAVDYCQQRSNWQYTFGQGTKLEI
notes: also called LC2010-033; hu-Mab<hOX40L>LC.033
What is called Kd is the free concentration of one partner at which half of the binding sites on the other are occupied at equilibrium, for simple one-to-one binding. As usually defined, the koff is a measure of how fast the partners let go of each other. By kon is commonly meant a measure of how fast the partners come together. In the case of B1, in assay [1], the Kd was less than 0.014 nM, the koff turned out to be 2.09e-07 s⁻¹ and the kon is 70100 M⁻¹ s⁻¹.

B2: Human anti-human OX40L monoclonal antibody LC.005 (antibody, IgG1, V domains shown)
VH: QVQLVESGGGVVQPGRSLRLSCAASGFTFSNFGMHWVRQAPGKGLEWVAAIWYDGHDKYYSYYVKGRFTISRDNSKNTLFLQMNSLRAEDTAVYYCARDSSSWYRYFDYWGQGTLVTVSS
VL: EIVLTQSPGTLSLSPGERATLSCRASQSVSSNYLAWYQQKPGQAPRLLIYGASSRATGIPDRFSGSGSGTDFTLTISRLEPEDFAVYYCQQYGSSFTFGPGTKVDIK
notes: also called LC2010-005; hu-Mab<hOX40L>LC.005
Usually IC50 stands for the concentration needed to halve the response being measured. For B2, in assay [2], the Kd was less than 0.015 nM, the koff was less than 1e-06 s⁻¹ and the kon worked out at 68400 M⁻¹ s⁻¹. In assay [3], the “IC50, IL-2 release of PHA-activated PBL co-stimulated with K562_OX40L cells” value is 10 nM. Also, the IC50 in assay [4] was 3 nM.

B3: Human anti-human OX40L monoclonal antibody LC.010 (antibody, IgG1, V domains shown)
VH: B2 VH with S61A
VL: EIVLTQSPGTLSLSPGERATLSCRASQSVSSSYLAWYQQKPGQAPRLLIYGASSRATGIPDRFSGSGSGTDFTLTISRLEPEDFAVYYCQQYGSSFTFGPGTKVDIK
notes: also called LC2010-010; hu-Mab<hOX40L>LC.010
With B3, in assay [1], the Kd worked out at 0.399 nM, the koff is 2.5e-05 s⁻¹ and the kon amounted to 62500 M⁻¹ s⁻¹.
